This test addresses T1, Hormad1 peptide on HLA-A*02:01 (human).
T1 peptide: YLDDLCVKI
Kind of test: multimer staining.

B1: Hormad1 CTL A12 TCR (TRAV4*01 F, TRBV13*01 F) (TCR, V domains shown)
Valpha: LAKTTQPISMDSYEGQEVNITCSHNNIATNDYITWYQQFPSQGPRFIIQGYKTKVTNEVASLFIPADRKSSTLSLPRVSLSDTAVYYCLVGARGTALIFGKGTTLSVSS
Vbeta: AAGVIQSPRHLIKEKRETATLKCYPIPRHDTVYWYQQGPGQDPQFLISFYEKMQSDKGSIPDRFSAQQFSDYHSELNMSSLELGDSALYFCASSPTGQGSYEQYFGPGTRLTVT
On to B1, for which the binding result is “recognises”.

The values are drawn from US20220409711A1 (published 2022).
